Reference: patent US20220324909A1 (COHBAR, published 2022)
Non-standard residues stand in square brackets, D forms with d. No end group written: not given here.

T1: Apelin Receptor (APJ) stably overexpressed in CHO-K1 AGTRL1 Gi cells (human, UniProt P35414 1-380)
T1 sequence (looked up): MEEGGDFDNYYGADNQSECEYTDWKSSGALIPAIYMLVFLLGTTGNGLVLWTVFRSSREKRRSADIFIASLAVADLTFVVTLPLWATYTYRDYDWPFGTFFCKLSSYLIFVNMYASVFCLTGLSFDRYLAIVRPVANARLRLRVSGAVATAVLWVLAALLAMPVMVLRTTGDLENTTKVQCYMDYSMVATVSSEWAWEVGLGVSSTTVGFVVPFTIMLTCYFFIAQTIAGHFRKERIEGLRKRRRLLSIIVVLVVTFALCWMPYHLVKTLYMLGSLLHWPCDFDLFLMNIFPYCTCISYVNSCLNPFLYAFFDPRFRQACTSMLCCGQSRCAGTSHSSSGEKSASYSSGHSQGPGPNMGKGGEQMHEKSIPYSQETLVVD


Columns and labels:
[1] = target: ProLink tagged human APJ (Apelin Receptor) in CHO-K1 AGTRL1 β-Arrestin cells (human, UniProt P35414 1-380); assay: cell-based or functional assay
[2] = target: T1, Apelin Receptor (APJ) stably …; assay: cell-based or functional assay

| Binder | β-Arrestin recruitment, Percent of Apelin-13 Control Activity (10 µM peptide) [1] | cAMP levels, Percent of Pyr-Apelin-13 Control Activity (10 µM peptide, 10 µM forskolin) [2] |
| --- | --- | --- |
| RRMMGMVFQCLSG[dA] [SEQ ID NO 16] | 0 % of Apelin-13 control |  |
| Ac-RRMMGMVFQSLCG[dA] [SEQ ID NO 61] | 5 % of Apelin-13 control | 1 % of Pyr-Apelin-13 control |
| RRMMGMVFQSLSG[dA] [SEQ ID NO 17] | 10 % of Apelin-13 control | 26 % of Pyr-Apelin-13 control |
| RMMGMVFQ [SEQ ID NO 51] | 0 % of Apelin-13 control | 24 % of Pyr-Apelin-13 control |
| RRMMGMVFQ [SEQ ID NO 58] | 0 % of Apelin-13 control | 5 % of Pyr-Apelin-13 control |
| RRMMGMVFQSLCG[dA]-NH2 [SEQ ID NO 62] | 2 % of Apelin-13 control | 27 % of Pyr-Apelin-13 control |
| RRMMGM [SEQ ID NO 55] | 1 % of Apelin-13 control | -7 % of Pyr-Apelin-13 control |
| Ac-RRMMGMVFQSLCG[dA]-NH2 [SEQ ID NO 63] | 9 % of Apelin-13 control | 21 % of Pyr-Apelin-13 control |
| RMMGMVFQSLCG[dA] [SEQ ID NO 54] | 1 % of Apelin-13 control | 20 % of Pyr-Apelin-13 control |
| RMMGMVFQS [SEQ ID NO 52] | 0 % of Apelin-13 control | 15 % of Pyr-Apelin-13 control |
| RRMMGMVFQSL [SEQ ID NO 60] | 0 % of Apelin-13 control | 16 % of Pyr-Apelin-13 control |
| RRMMGMVFQS [SEQ ID NO 59] | 0 % of Apelin-13 control | -2 % of Pyr-Apelin-13 control |
| RRMMGMV [SEQ ID NO 56] | 0 % of Apelin-13 control | -2 % of Pyr-Apelin-13 control |
| RRMMGMVF [SEQ ID NO 57] | 0 % of Apelin-13 control | -1 % of Pyr-Apelin-13 control |
| RMMGMVF [SEQ ID NO 50] | 0 % of Apelin-13 control | 8 % of Pyr-Apelin-13 control |
| RMMGMVFQSL [SEQ ID NO 53] | 1 % of Apelin-13 control | 6 % of Pyr-Apelin-13 control |
